The record followed here is patent publication US20220073613A1, “ACTIVATABLE MASKED ANTI-CTLA4 BINDING PROTEINS” (Xilio Development, Inc., priority 2018, published 2022).

Assay [1] concerns the target murine CTLA4 (muCTLA4hsIgG protein). The assay is described as follows: Low density antigen binding ELISA, with MMP2 activation (Example 3B). As for the experimental part: All ELISA were performed in a manner substantially similar to the description below or generally consistent with methods known in the art. Polysterene 96-well microplates (Thermo Fisher Scientific) were coated with 3 ng muCTLA4hsIgG protein (Abcam) per well and stored overnight at 4° C. Plates were washed with 0.1% Tween in TBS (TBS-T), blocked with 1% BSA (Fisher) in PBS for 2 hours at 4° C., and washed with TBS-T. Serial dilutions of tested antibody in 0.05% Tween+1% BSA in PBS (PBS-TB) were added to the plate and incubated at room temperature for 1 hour. After washing with TBS-T, HRP-conjugated goat anti-mouse Kappa light chain antibody (Abcam) diluted 1:4000 in PBS-TB was applied to the wells and incubated at room temperature for 1 hour. Plates were washed with TBS-T, chemiluminescent HRP substrate was applied to plate, and luminescence was recorded using a spectrophotometer (Synergy HT, BioTek). Data was analyzed with GraphPad Prism, version 7.02.
Parental anti-CTLA4 antibodies, masked anti-CTLA4 antibodies, and non-cleavable masked anti-CTLA4 antibodies were each diluted to 1 μM solution in cleavage buffer (150 mM NaCl; 50 mM Tris, pH 7.5; 10 mM CaCl2; 0.02% NP-40). Recombinant MMP2 (R&D Systems) activated with 1 mM p-aminophenylmercuric acetate […] for 1 hour at 37° C. was added to each antibody solution to a final concentration of 4 nM and incubated overnight at 37° C. […]

Assay [2] deals with MC38 tumors. The assay is described as follows: MC38 mouse colorectal carcinoma model, tumor and Treg analysis (Example 4B). It counts as in vivo, C57BL/6 mice. As for the experimental part: The effects of activatable masked anti-CTLA4 antibodies on tumor growth as well as immune parameters in the tumor and in the periphery were investigated using a MC38 mouse colorectal carcinoma model, previously shown to respond to treatment with the 9D9 antibody. See Peggs K. S. et al., J Exp Med., 206:1717-1725, (2009) and Selby M. J., et al., Cancer Immunol Res., 1:32-42, (2013).
To assess anti-tumor efficacy, antibodies formulated in PBS were administered intraperitoneally (i.p.) on day 1 post-randomization at […] per dose in a volume of ≤250 μL. Tumor volumes were determined twice weekly. All mice were monitored individually and sacrificed upon either tumor volume reaching 1500 mm3 or 45 days post-randomization. To assess biological function of antibodies on regulatory T cells (Tregs) by FACS analysis as described below, tumor-bearing mice were administered antibody intraperitoneally on days 1, 4, and 8 post-randomization at […] per dose in a volume of ≤250 μL. The control antibody was muIgG2a (BioXcell). All mice were sacrificed on day 9; tumor and spleen were harvested for FACS analysis.
Mouse tumor samples were dissociated according to standard protocol by Tumor Dissociation Kit (gentleMACS) and passed through a 70 μm cell strainer. Spleen samples were dissociated with the back of a syringe in a 70 μm cell strainer. Red blood cells were lysed with ACK buffer (Lonza). Final cell suspensions were washed and resuspended in Staining Buffer (PBS pH 7.4, 2.5% FBS, 0.09% NaN3) at 2×10^7 cells/mL. Cells were treated with Mu Trustain fcX (BioLegend) to block Fc receptors prior to being stained with antibodies against CD45 (BioLegend), CD3 (BioLegend), CD4 (BioLegend), CD8 (BD Biosciences), CD25 (BioLegend), and Live/Dead Aqua (ThermoFisher). For intracellular staining, cells were fixed, permeabilized, and stained with antibodies against FoxP3 (eBioscience) and Ki-67 (eBioscience). Single color stains and FMOs were run for gating purposes.

Assay [3] addresses T1, murine CTLA4-Fc (Mus musculus, UniProt P09793).
T1 construct: purchased R&D Systems
The assay is described as follows: ELISA binding to murine CTLA4-Fc, with MMP2 cleavage (Example 3A). Particulars: MMP2, 37° C. overnight. As for the experimental part: ELISA plates were coated overnight in TBS with murine CTLA4-Fc (R&D Systems) and then washed with TBS with 0.05% Tween 20, and blocked with 1% BSA in PBS followed by washing with TBS with Tween 20. Dilutions of parental anti-CTLA4 antibodies and masked anti-CTLA4 antibodies in PBS were allowed to bind to CTLA4 for 60 minutes before washing with TBS Tween 20. Binding was detected with anti-muKappa-HRP (Abcam) and Super Signal Pico Chemiluminescent Substrate. Masked ratio was determined from the EC50 precleavage masked anti-CTLA4 antibody to the EC50 for parental anti-CTLA4 antibody.
Parental anti-CTLA4 antibodies and masked anti-CTLA4 antibodies were incubated with 6 nM of MMP2 (R&D Systems) in 150 mM NaCl, 50 mM Tris, pH 7.5, 10 mM CaCl2, 0.02% NP-40) at 37° C. overnight. Antibody dilutions were tested for binding to murine CTLA4-Fc by the ELISA described above and by reduced-SDS-PAGE analysis, using “Any Kd Stain-Free pre-cast polyacrylamide gels” (Bio-Rad).
Background: ELISA stands for enzyme-linked immunosorbent assay.

Assay [4] has as its system MC38 tumors. Briefly: MC38 tumor eradication and T cell population analysis (Example 4A). The format is in vivo, C57Bl/6 mice. As for the experimental part:
C57Bl/6 mice with 50-100 mm^3 MC38 tumors were administered intraperitoneally a single dose of 200 μg of IgG2a control (BioXcel), parental anti-CTLA4 antibody reactive to murine CTLA4 (9D9.IgG2a, light chain comprising SEQ ID NO:237, heavy chain comprising SEQ ID NO:319), activatable masked anti-CTLA4 antibody reactive to murine CTLA4 (light chain comprising SEQ ID NO:238, heavy chain comprising SEQ ID NO:319), masked anti-CTLA4 antibody 1005 reactive to murine CTLA4 (light chain comprising SEQ ID NO:240, heavy chain comprising SEQ ID NO:319), or anti-CTLA4 antibody 1 cross-reactive with human CTLA4 and murine CTLA4 (light chain comprising SEQ ID NO:327, heavy chain comprising SEQ ID NO:366). Body weight and tumor size were measured biweekly.
C57Bl/6 mice with 50-100 mm^3 MC38 tumors were dosed with three […] doses on day 1, 4, and 8 with IgG2a control (BioXcel), parental anti-CTLA4 antibody (9D9.IgG2a, light chain comprising SEQ ID NO:237, heavy chain comprising SEQ ID NO:319 masked anti-CTLA4 antibody 2 (light chain comprising SEQ ID NO:238, heavy chain comprising SEQ ID NO:319), masked anti-CTLA4 antibody 1005 (light chain comprising SEQ ID NO:240, heavy chain comprising SEQ ID NO:319), or anti-CTLA4 antibody 1 cross-reactive with human CTLA4 and murine CTLA4 (light chain comprising SEQ ID NO:327, heavy chain comprising SEQ ID NO:366). On day 9, mice were sacrificed and tumors were dissociated using gentleMACS™ protocol “Tumor Dissociation Kit” (Milteni) and filtered through a 70 micron cell strainer and rinsed twice in PBS/2.5% FBS buffer to remove enzymatic buffer. […] and spleen cells were dissociated by gently grinding the tissue across a mesh. Red blood cells were lysed with ACK buffer (Thermo Fisher) prior to staining of the cells. Staining of cells was with fluorescently labeled anti-CD45 (BioLegend), anti-CD3 (BioLegend), anti-CD4 (BioLegend), anti-CD8 (BD Biosciences), anti-CD25 (BioLegend). Prior to staining with anti-FoxP3 (eBioscience), and anti-Ki67 (eBioscience) the cells were permeabilized. Stained cells were analyzed by fluorescent activate cell sorting (FACS) for the percentages of CD4+, CD8+, and CD25 Foxp3+(Tregs) cells of the live (Live/Dead Aqua purchased from Life) CD45 positive cells, as well as the percentage of these three cell populations that were Ki67 positive, a marker of cell proliferation.

[5] abbreviates: multi-dose, compared to parental antibody (9D9.IgG2a).

For orientation: EC50 means the concentration giving half of the maximal effect.

Chain of murine CTLA4 (muCTLA4hsIgG protein) (P09793 36-161 limits assumed): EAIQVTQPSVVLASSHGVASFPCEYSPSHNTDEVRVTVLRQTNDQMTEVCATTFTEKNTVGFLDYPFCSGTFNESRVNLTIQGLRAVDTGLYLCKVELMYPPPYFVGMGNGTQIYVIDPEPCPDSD
T1 sequence (P09793 with tags, fused parts or gaps limits assumed): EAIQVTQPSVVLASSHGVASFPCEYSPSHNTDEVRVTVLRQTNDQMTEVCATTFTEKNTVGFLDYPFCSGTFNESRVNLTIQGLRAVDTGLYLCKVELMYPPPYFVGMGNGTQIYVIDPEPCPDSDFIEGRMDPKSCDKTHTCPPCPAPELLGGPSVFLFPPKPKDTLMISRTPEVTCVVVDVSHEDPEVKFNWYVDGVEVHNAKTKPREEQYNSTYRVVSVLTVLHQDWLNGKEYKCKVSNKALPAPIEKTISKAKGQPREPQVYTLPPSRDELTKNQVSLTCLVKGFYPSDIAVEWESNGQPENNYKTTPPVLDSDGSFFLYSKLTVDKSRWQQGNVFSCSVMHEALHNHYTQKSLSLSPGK

B1: activatable masked anti-CTLA4 antibody: 9D9 masked with CNLIVEGHC via MMP2/7/9 cleavable linker; light chain SEQ ID NO:238, heavy chain SEQ ID NO:319 (antibody)
heavy: EAKLQESGPVLVKPGASVKMSCKASGYTFTDYYMNWVKQSHGKSLEWIGVINPYNGDTSYNQKFKGKATLTVDKSSSTAYMELNSLTSEDSAVYYCARYYGSWFAYWGQGTLITVSSAKTTAPSVYPLAPVCGDTTGSSVTLGCLVKGYFPEPVTLTWNSGSLSSGVHTFPAVLQSDLYTLSSSVTVTSSTWPSQSITCNVAHPASSTKVDKKIEPRGPTIKPCPPCKCPAPNLLGGPSVFIFPPKIKDVLMISLSPIVTCVVVDVSEDDPDVQISWFVNNVEVHTAQTQTHREDYNSTLRVVSALPIQHQDWMSGKEFKCKVNNKDLPAPIERTISKPKGSVRAPQVYVLPPPEEEMTKKQVTLTCMVTDFMPEDIYVEWTNNGKTELNYKNTEPVLDSDGSYFMYSKLRVEKKNWVERNSYSCSVVHEGLHNHHTTKSFSRTPGK
light: ACNLIVEGHCGGSVPLSLYSGGGDIVMTQTTLSLPVSLGDQASISCRSSQSIVHSNGNTYLEWYLQKPGQSPKLLIYKVSNRFSGVPDRFSGSGSGTDFTLKISRVEAEDLGVYYCFQGSHVPYTFGGGTKLEIKRADAAPTVSIFPPSSEQLTSGGASVVCFLNNFYPKDINVKWKIDGSERQNGVLNSWTDQDSKDSTYSMSSTLTLTKDEYERHNSYTCEATHKTSTSPIVKSFNRNEC
In the case of B1, the EC50 in assay [1] (treated with recombinant MMP2) was 0.29 ± 0.03 nM. Moreover, the “fold lower binding to murine CTLA4 as compared to parental anti-CTLA4 antibody” value in assay [1] (without protease, listed as Masked 9D9) was “approximately 156 fold”. Besides, the “proliferating (Ki67+ FOXP3+) Tregs in the spleens” value in assay [2] (doses on days 1, 4, and 8, 24 hours after last dose) was “marginal increases”. For the same molecule, the “intratumoral Treg abundance” value in assay [2] (doses on days 1, 4, and 8, 24 hours after last dose, flow cytometry) is “as effective in reducing Tregs as parental anti-CTLA4 antibody”. Besides, in assay [2] (i.p. on day 1 post-randomization), the “growth of subcutaneously implanted MC38 tumors” value is reported as “induced tumor regression”. For the same molecule, the “binding to murine CTLA4 after protease activation” value in assay [3] was “fully restored binding”. Also, in assay [4] (setting [5]), the “proliferation of CD4+ cells in the periphery (spleen), % Ki67+” value is recorded as “reduced proliferation” and the “proliferation of CD8+ T cells in the periphery (spleen), % Ki67+” value is given as “reduced proliferation”. Moreover, in assay [4] (single dose of 200 μg intraperitoneally), the tumor volume entry was “equivalent efficacy in reducing tumor volume”. Moreover, the “regulatory T lymphocytes (Tregs) population in the tumor” value in assay [4] (three doses on day 1, 4, and 8, day 9) was “preferentially depleted”.
